Legend:
Assay in all cases: SPR
[1] = target: fHbp V3.28 Leu (at V1 Leu156) to Ala (N. meningitidis)
[2] = target: fHbp V2.21 Glu (at V1 Gly267) to Ala (N. meningitidis)
[3] = target: fHbp V1.1 Phe174 to Ala (N. meningitidis)
[4] = target: fHbp V2.21 Lys (at V1 Lys107) to Ala (N. meningitidis)
[5] = target: fHbp V1.1 Ser288 to Ala (N. meningitidis)
[6] = target: fHbp V2.21 His (at V1 His248) to Ala (N. meningitidis)
[7] = target: fHbp V3.28 Pro (at V1 Ser182) to Ala (N. meningitidis)
[8] = target: fHbp V2.21 Leu (at V1 Ser274) to Ala (N. meningitidis)
[9] = target: fHbp V1.1 Ser274 to Ala (N. meningitidis)
[10] = target: fHbp V1.1 Ile179 to Ala (N. meningitidis)
[11] = target: fHbp V3.28 Leu (at V1 Ser274) to Ala (N. meningitidis)
[12] = target: fHbp V3.28 Ile (at V1 Ile154) to Ala (N. meningitidis)
[13] = target: fHbp V3.28 Phe (at V1 Phe194) to Ala (N. meningitidis)
[14] = target: fHbp V3.28 His (at V1 His203) to Ala (N. meningitidis)
[15] = target: fHbp V3.28 Ser (at V1 Ser104) to Ala (N. meningitidis)
[16] = target: fHbp 1.P249 (N. meningitidis) (UniProt E6MV22)
[17] = target: fHbp V2.21 Lys (at V1 Lys268) to Ala (N. meningitidis)
[18] = target: fHbp V3.28 Gln (at V1 Arg145) to Ala (N. meningitidis)
[19] = target: fHbp V2.21 Asp (at V1 Glu183) to Ala (N. meningitidis)
[20] = target: fHbp V1.1 Val149 to Ala (N. meningitidis)
[21] = target: fHbp V3.28 Val (at V1 Val149) to Ala (N. meningitidis)
[22] = target: fHbp V1.1 Ser182 to Ala (N. meningitidis)
[23] = target: fHbp V2.21 Ser (at V1 Ser302) to Ala (N. meningitidis)
[24] = target: fHbp V3.28 Gln (at V1 Lys191) to Ala (N. meningitidis)
[25] = target: fHbp V2.21 Glu (at V1 Glu157) to Ala (N. meningitidis)
[26] = target: fHbp V1.1 Asp150 to Ala (N. meningitidis)
[27] = target: fHbp V3.28 Ile (at V1 Ile179) to Ala (N. meningitidis)
[28] = target: fHbp V1.1 Lys264 to Ala (N. meningitidis)
[29] = target: fHbp V1.1 Lys92 to Ala (N. meningitidis)
[30] = target: fHbp V2.21 Glu (at V1 Glu109) to Ala (N. meningitidis)
[31] = target: fHbp V1.1 Leu171 to Ala (N. meningitidis)
[32] = target: fHbp V3.28 Leu (at V1 Leu289) to Ala (N. meningitidis)
[33] = target: fHbp V1.1 His184 to Ala (N. meningitidis)
[34] = target: fHbp V1.1 Ile147 to Ala (N. meningitidis)
[35] = target: fHbp V2.21 Leu (at V1 Leu156) to Ala (N. meningitidis)
[36] = target: fHbp V2.21 Asn (at V1 Gln180) to Ala (N. meningitidis)
[37] = target: fHbp V1.1 Ile154 to Ala (N. meningitidis)
[38] = target: fHbp 1.P292 (N. meningitidis) (UniProt E6MV22)
[39] = target: factor H binding protein (fHbp) V2.21 (N. meningitidis) (UniProt E6MV22)
[40] = target: fHbp V2.21 Asn (at V1 Asn108) to Ala (N. meningitidis)
[41] = target: fHbp V3.28 Lys (at V1 Lys306) to Ala (N. meningitidis)
[42] = target: fHbp 1.P9 (N. meningitidis) (UniProt E6MV22)
[43] = target: fHbp V3.28 Asp (at V1 Glu183) to Ala (N. meningitidis)
[44] = target: fHbp V1.1 Lys107 to Ala (N. meningitidis)
[45] = target: fHbp V2.21 Ile (at V1 Ile179) to Ala (N. meningitidis)
[46] = target: fHbp 1.P10 (N. meningitidis) (UniProt E6MV22)
[47] = target: fHbp V3.28 Thr (at V1 Glu304) to Ala (N. meningitidis)
[48] = target: fHbp 3.P47 (N. meningitidis) (UniProt E6MV22)

Chain of CFH67, CCP domains 6 and 7 of complement factor H (P08603 321-443): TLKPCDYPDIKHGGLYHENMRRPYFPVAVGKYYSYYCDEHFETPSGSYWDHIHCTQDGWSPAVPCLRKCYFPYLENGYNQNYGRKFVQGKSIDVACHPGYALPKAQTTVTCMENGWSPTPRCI

Substance: CFH67, CCP domains 6 and 7 of complement factor H (from UniProt P08603 321-443) (domain or fragment)
- Kd [1]: 28.8 nM
- Kd [2]: 1.63 nM
- Kd [3]: 3.21 nM
- Kd [4]: 3.06 nM
- Kd [5]: 2.87 nM
- Kd [6]: 1.92 nM
- Kd [7]: 3.06 nM
- Kd [8]: 23.9 nM
- Kd [9]: 11.3 nM
- Kd [10]: 8.06 nM
- Kd [11]: 18.5 nM
- Kd [12]: 14.3 nM
- Kd [13]: 4.25 nM
- Kd [14]: 2.33 nM
- Kd [15]: 8.99 nM
- Kd [16]: 5.36 nM
- Kd [17]: 3.28 nM
- Kd [18]: 0.621 nM
- Kd [19]: 4.29 nM
- Kd [20]: 0.00928 µM
- Kd [21]: 6.81 nM
- Kd [22]: 4.35 nM
- Kd [23]: 8.39 nM
- Kd [24]: 2.43 nM
- Kd [25]: 0.401 nM
- Kd [26]: 6.11 nM
- Kd [27]: 9.91 nM
- Kd [28]: 12.3 nM
- Kd [29]: 4.4 nM
- Kd [30]: 2.34 nM
- Kd [31]: 7.45 nM
- Kd [32]: 1.29 nM
- Kd [33]: 9.27 nM
- Kd [34]: 17.3 nM
- Kd [35]: 4.7 nM
- Kd [36]: 6.21 nM
- Kd [37]: 7.69 nM
- Kd [38]: 7.74 nM
- Kd [39]: 1.87 nM
- Kd [40]: 3.82 nM
- Kd [41]: 10.7 nM
- Kd [42]: 4.87 nM
- Kd [43]: 5.96 nM
- Kd [44]: 9.59 nM
- Kd [45]: 12 nM
- Kd [46]: 15.2 nM
- Kd [47]: 11.7 nM
- Kd [48]: 0.514 nM

Substance: CFHR3_(12), the first two (N-terminal) CCP domains of complement factor H-related 3 (from UniProt Q02985 19-330) (domain or fragment)
- Kd [1]: 51.9 nM
- Kd [2]: 2.13 nM
- Kd [3]: 338 nM
- Kd [4]: 4.47 nM
- Kd [5]: 57.5 nM
- Kd [6]: 3.56 nM
- Kd [7]: 3.24 nM
- Kd [8]: 17.8 nM
- Kd [9]: 43.5 nM
- Kd [10]: 1270 nM
- Kd [11]: 20.3 nM
- Kd [12]: 13.7 nM
- Kd [13]: 5.15 nM
- Kd [14]: 3.47 nM
- Kd [15]: 7.19 nM
- Kd [16]: 32.3 nM
- Kd [17]: 3.25 nM
- Kd [18]: 0.434 nM
- Kd [19]: 4.45 nM
- Kd [20]: 6.54 µM
- Kd [21]: 8.28 nM
- Kd [22]: 83.7 nM
- Kd [23]: 6.3 nM
- Kd [24]: 3.05 nM
- Kd [25]: 2.74 nM
- Kd [26]: 118 nM
- Kd [27]: 6.98 nM
- Kd [28]: 589 nM
- Kd [29]: 71.9 nM
- Kd [30]: 4.62 nM
- Kd [31]: 724 nM
- Kd [32]: 1.18 nM
- Kd [33]: 118 nM
- Kd [34]: 174 nM
- Kd [35]: 7.54 nM
- Kd [36]: 5.87 nM
- Kd [37]: 147 nM
- Kd [38]: 31.4 nM
- Kd [39]: 3.73 nM
- Kd [40]: 4.26 nM
- Kd [41]: 9.34 nM
- Kd [42]: 41.1 nM
- Kd [43]: 4.88 nM
- Kd [44]: 174 nM
- Kd [45]: 7.84 nM
- Kd [46]: 119 nM
- Kd [47]: 17.5 nM
- Kd [48]: 1.64 nM
